Numbering of substitutions follows the chain as printed.

The values that follow come from US20210388087A1 (Chugai, published 2021).

Sequences and labels used below:
B1: CE115HA000 Y97D (antibody, human IgG1, kappa, L234A L235A, N297A, name in Kabat numbering)
heavy: QVQLVESGGGVVQPGRSLRLSCAASGFTFSNAWMHWVRQAPGKGLEWVAQIKAKSNNYATYYAESVKGRFTISRDDSKNSLYLQMNSLKTEDTAVYYCRYVHDGAYYGVDAWGQGTTVTVSSASTKGPSVFPLAPSSKSTSGGTAALGCLVKDYFPEPVTVSWNSGALTSGVHTFPAVLQSSGLYSLSSVVTVPSSSLGTQTYICNVNHKPSNTKVDKKVEPKSCDKTHTCPPCPAPEAAGGPSVFLFPPKPKDTLMISRTPEVTCVVVDVSHEDPEVKFNWYVDGVEVHNAKTKPREEQYASTYRVVSVLTVLHQDWLNGKEYKCKVSNKALPAPIEKTISKAKGQPREPQVYTLPPSRCELTKNQVSLSCAVKGFYPSDIAVEWESNGQPENNYKTTPPVLDSDGSFFLVSKLTVDKSRWQQGNVFSCSVMHEALHNHYTQKSLSLSPDYKDDDDK
chain: EPKSSDKTHTCPPCPAPELLGGPSVFLFPPKPKDTLMISRTPEVTCVVVDVSHEDPEVKFNWYVDGVEVHNAKTKPREEQYNSTYRVVSVLTVLHQDWLNGKEYKCKVSNKALPAPIEKTISKAKGQPREPQVCTLPPSRDELTKNQVSLWCLVKGFYPSDIAVEWESNGQPENNYKTTPPVLDSDGSFFLYSKLTVDKSRWQQGNVFSCSVMHEALHNRYTQKSLSLSP
light: DIVMTQSPLSLPVTPGEPASISCRSSQSLVHSNRNTYLHWYQQKPGQAPRLLIYKVSNRFSGVPDRFSGSGSGTDFTLKISRVEAEDVGVYYCGQGTQVPYTFGQGTKLEIKRTVAAPSVFIFPPSDEQLKSGTASVVCLLNNFYPREAKVQWKVDNALQSGNSQESVTEQDSKDSTYSLSSTLTLSKADYEKHKVYACEVTHQGLSSPVTKSFNRGEC
notes: one-arm antibody
B2: CE115HA000 Y97R (antibody, human IgG1, kappa, L234A L235A, N297A, name in Kabat numbering)
heavy: B1 heavy with D103R
chain: B1 chain
light: B1 light
notes: one-arm antibody
B3: CE115HA000 Y97P (antibody, human IgG1, kappa, L234A L235A, N297A, name in Kabat numbering)
heavy: B1 heavy with D103P
chain: B1 chain
light: B1 light
notes: one-arm antibody
B4: CE115HA000 Y97G (antibody, human IgG1, kappa, L234A L235A, N297A, name in Kabat numbering)
heavy: B1 heavy with D103G
chain: B1 chain
light: B1 light
notes: one-arm antibody
B5: CE115HA000 Y100K (antibody, human IgG1, kappa, L234A L235A, N297A, name in Kabat numbering)
heavy: B1 heavy with D103Y, Y106K
chain: B1 chain
light: B1 light
notes: one-arm antibody
B6: CE115HA000 Y100L (antibody, human IgG1, kappa, L234A L235A, N297A, name in Kabat numbering)
heavy: B1 heavy with D103Y, Y106L
chain: B1 chain
light: B1 light
notes: one-arm antibody
B7: CE115HA000 Y100A (antibody)
heavy: B1 heavy with D103Y, Y106A
Fc: B1 chain
light: B1 light
notes: one-arm antibody
B8: CE115HA000 Y100D (antibody, human IgG1, kappa, L234A L235A, N297A, name in Kabat numbering)
heavy: B1 heavy with D103Y, Y106D
chain: B1 chain
light: B1 light
notes: one-arm antibody
B9: CE115HA000 Y100G (antibody, human IgG1, kappa, L234A L235A, N297A, name in Kabat numbering)
heavy: B1 heavy with D103Y, Y106G
chain: B1 chain
light: B1 light
notes: one-arm antibody
B10: CE115HA000 Y97S (antibody, human IgG1, kappa, L234A L235A, N297A, name in Kabat numbering)
heavy: B1 heavy with D103S
chain: B1 chain
light: B1 light
notes: one-arm antibody

T1 sequence (P07766 23-126): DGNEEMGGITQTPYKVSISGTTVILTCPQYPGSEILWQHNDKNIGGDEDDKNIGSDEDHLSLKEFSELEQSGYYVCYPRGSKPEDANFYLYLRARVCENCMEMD

The assay concerns the target T1, CD3 epsilon homodimer protein (UniProt P07766 23-126).
T1 construct: also called CD3 (CD3 epsilon)
Kind of assay: SPR, CD3 epsilon homodimer on chip, one-arm antibody as analyte.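 Also: surface plasmon resonance at 25 °C with CD3 epsilon homodimer amine-coupled to a CM4 sensor chip, antibody injected as analyte, HBS-EP+ as running buffer.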
Procedure: An appropriate amount of CD3 epsilon homodimer protein was immobilized onto Sensor chip CM4 (GE Healthcare Japan Corp.) by the amine coupling method. Then, the antibody having an appropriate concentration was injected thereto as an analyte and allowed to interact with the CD3 epsilon homodimer protein on the sensor chip. Then, the sensor chip was regenerated by the injection of 10 mmol/L glycine-HCl (pH 1.5). The assay was conducted at 25 degrees C., and HBS-EP+(GE Healthcare Japan Corp.) was used as a running buffer. […] Each parameter was calculated using Biacore T200 Evaluation Software (GE Healthcare Japan Corp.).
As for B1, the “KD ratio (KD of CE115HA000/KD of altered form)” value (“KD ratio” for short) was found to be 65.7.
Turning to B2, the “KD ratio” value turned out to be 23200.
For B3 the value was 12400; for B4, 47200; for B5, 0.93.
With B6, the “KD ratio” value was determined as 0.67.
For B7 the value was 0.92; for B8, 0.63.
As for B9, the “KD ratio” value worked out at 0.97.
For B10 the value was 1180.
